Measurements taken from US20260250421A1 (BIOCYTOGEN PHARMACEUTICALS BEIJING, published 2026).

Key:
[1] = target: T1, His-tagged human PTK7 protein (human, UniProt Q13308 31-704); assay: SPR Biacore 8K, Ab on Protein A chip
T1 construct: Bought protein; also called hPTK7-His; not shown: His tag
T1 sequence: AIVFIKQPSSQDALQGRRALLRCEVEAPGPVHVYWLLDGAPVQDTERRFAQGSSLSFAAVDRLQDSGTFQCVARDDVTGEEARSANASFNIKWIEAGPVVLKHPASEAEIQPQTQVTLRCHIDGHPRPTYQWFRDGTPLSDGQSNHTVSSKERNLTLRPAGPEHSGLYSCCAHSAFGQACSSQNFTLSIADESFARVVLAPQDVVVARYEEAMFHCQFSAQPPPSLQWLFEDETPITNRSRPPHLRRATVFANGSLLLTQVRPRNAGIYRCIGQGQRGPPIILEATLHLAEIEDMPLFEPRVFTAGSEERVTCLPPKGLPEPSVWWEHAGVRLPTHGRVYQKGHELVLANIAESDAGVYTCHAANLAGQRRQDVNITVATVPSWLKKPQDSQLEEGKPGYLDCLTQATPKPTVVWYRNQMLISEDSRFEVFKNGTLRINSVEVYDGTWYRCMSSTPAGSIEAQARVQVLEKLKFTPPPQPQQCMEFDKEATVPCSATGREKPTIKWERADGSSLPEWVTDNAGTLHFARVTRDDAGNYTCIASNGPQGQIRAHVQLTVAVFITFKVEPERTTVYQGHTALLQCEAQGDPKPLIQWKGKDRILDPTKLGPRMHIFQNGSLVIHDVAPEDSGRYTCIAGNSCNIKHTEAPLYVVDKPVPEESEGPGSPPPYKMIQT
Method: (§1) The affinity of the anti-PTK7/TROP2 bispecific antibodies to His-tagged human TROP2 protein (hTROP2-His, ACRO Biosystems Inc., Cat #: TR2-H5223), His-tagged […] monkey TROP2 protein (cTROP2-His, ACRO Biosystems Inc., Cat #: Cat: TR2-R52H3), His-tagged dog TROP2 protein (dTROP2-His, ACRO Biosystems Inc., Cat #: TR2-C52H4), hPTK7-His, cPTK7-His and dPTK7-His were measured by surface plasmon resonance (SPR) using Biacore™ (Biacore, INC, Piscataway N.J.) 8K biosensor equipped with pre-immobilized Protein A sensor chips.

[2] = target: T2, His-tagged cynomolgus monkey PTK7 protein (cynomolgus monkey, UniProt A0A2K5VNI5 39-712); assay: SPR Biacore 8K, Ab on Protein A chip
T2 construct: Bought protein; also called cPTK7-His; ACRO Biosystems Cat# PT7-C52H3; not shown: His tag
T2 sequence: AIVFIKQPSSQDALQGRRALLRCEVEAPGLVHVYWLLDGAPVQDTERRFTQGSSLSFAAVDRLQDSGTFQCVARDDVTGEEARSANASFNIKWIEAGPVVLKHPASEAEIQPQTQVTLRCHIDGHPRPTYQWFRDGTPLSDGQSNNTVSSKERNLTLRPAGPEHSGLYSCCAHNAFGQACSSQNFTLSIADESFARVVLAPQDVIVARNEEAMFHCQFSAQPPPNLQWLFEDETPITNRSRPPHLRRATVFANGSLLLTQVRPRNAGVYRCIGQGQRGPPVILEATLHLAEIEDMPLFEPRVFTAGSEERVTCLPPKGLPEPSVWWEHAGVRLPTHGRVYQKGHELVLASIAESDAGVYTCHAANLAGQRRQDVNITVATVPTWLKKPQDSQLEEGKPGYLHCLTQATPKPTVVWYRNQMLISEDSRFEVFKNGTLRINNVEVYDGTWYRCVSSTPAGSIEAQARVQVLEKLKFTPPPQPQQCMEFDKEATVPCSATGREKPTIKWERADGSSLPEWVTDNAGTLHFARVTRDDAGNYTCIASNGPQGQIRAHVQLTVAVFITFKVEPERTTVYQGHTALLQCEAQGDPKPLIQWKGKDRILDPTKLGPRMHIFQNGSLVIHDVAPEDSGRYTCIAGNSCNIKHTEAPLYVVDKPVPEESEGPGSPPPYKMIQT
Method: as §1

[3] = target: T3, TROP2 on NCI-H1975 and NUGC-4 tumor cells (UniProt P09758 27-323, limits assumed); assay: flow cytometry on NCI-H1975 cells co-expressing PTK7 and TROP2; the single curve of the bispecific is not resolved between the two targets; anti-hIgG-Fc Alexa Fluor 647 secondary antibody, MFI [A]
T3 construct: whole, on cells; species of the lines is not worded there; also called TROP2 on cells
T3 sequence (looked up): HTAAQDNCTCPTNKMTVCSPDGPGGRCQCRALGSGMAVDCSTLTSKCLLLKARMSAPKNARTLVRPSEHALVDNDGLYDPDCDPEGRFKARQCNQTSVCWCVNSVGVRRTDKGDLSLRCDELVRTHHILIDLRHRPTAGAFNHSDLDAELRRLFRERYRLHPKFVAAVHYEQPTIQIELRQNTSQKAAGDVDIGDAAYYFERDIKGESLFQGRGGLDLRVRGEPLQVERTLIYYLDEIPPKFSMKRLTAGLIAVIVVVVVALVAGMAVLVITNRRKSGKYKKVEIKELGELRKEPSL
Method: This experiment was performed to test the binding activities of the anti-PTK7/TROP2 bispecific antibodies to different tumor cell lines. NCI-H1975 cells or NUGC-4 cells were transferred to a 96-well plate at a density of 5×10⁴ cells/well respectively. The sample antibody was added to the 96-well plate, and incubated at 4° C. for 30 min.

B1: 3C4-18E9 (bispecific antibody, human IgG1, V domains shown)
VH 1: QVQLEQSRAEVKKPGESLRISCKGSGYSFTSYWISWVRQMPGKGLEWMGRIDPSDSYTNYNPSFQGHVTISADKSISTAYLQWSSLKASDTAMYYCARRDGSYFDFDYWGQGTLVTVSS
VH 2: QLQLQQSGPGLLKPSETLSLTCTVSGGSISSSYYFWGWIRQPPGKGLEWIGAIYYIGNTHYNPSLKSRVTISIDTSKNQFSLNLNSVTAADTAIYYCARYEDTWNWFDPWGQGTLVTVSS
VL: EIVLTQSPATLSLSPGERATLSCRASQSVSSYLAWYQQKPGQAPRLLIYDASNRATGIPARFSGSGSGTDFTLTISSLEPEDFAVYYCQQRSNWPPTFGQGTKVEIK
notes: which arm carries the knob is stated only for 3C4-6F7; also called anti-PTK7/TROP2 bispecific antibody 3C4-18E9
With B1 the Kd [1] was 9.79 nM, the koff [1] was 0.00125 s⁻¹ and the kon [1] was 128000 M⁻¹ s⁻¹. The Kd [2] was 13.1 nM, the koff [2] was 0.00167 s⁻¹ and the kon [2] was 127000 M⁻¹ s⁻¹. For the same binder, the “EC50 (read off the curve)” value [3] was roughly 0.7 µg/mL.
